According to article PMC4860565, “N6-Methyladenosine: a conformational marker that regulates the substrate specificity of human demethylases FTO and ALKBH5”:

What was measured:
ALKBH5 [1] = molecular target: T1, ALKBH5 (Homo sapiens, UniProt Q6P6C2 66-292); assay: MST (label-free); 1 mM MnCl2, NOG presumably as for FTO; MST: 50 mM Tris pH 7.5, 150 mM NaCl, 0.05% Tween 20, 25 C; EMSA: 10 mM HEPES pH 7.3, 5% glycerol, 20 mM KCl, 1 mM MgCl2, 1 mM DTT, RNasin, 4 nM RNA, 4 C; details: protein: recombinant, tags: His6 (pNIC28-Bsa4)
T1 sequence (Q6P6C2 66-292): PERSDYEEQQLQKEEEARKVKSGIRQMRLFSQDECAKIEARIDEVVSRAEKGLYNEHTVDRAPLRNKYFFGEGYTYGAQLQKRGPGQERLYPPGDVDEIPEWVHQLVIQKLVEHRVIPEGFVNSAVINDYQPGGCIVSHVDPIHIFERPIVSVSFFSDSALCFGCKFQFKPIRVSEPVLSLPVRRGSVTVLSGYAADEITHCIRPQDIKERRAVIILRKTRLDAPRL

FTO [2] = molecular target: T2, FTO (Homo sapiens, UniProt Q9C0B1 1-505); assay: MST (label-free); 1 mM NiSO4, 500 uM NOG; MST: 50 mM Tris pH 7.5, 150 mM NaCl, 0.05% Tween 20, 25 C; EMSA: 10 mM HEPES pH 7.3, 5% glycerol, 20 mM KCl, 1 mM MgCl2, 1 mM DTT, RNasin, 4 nM RNA, 4 C; details: protein: recombinant, tags: His6 (pNIC28-Bsa4)
T2 sequence (Q9C0B1 whole entry): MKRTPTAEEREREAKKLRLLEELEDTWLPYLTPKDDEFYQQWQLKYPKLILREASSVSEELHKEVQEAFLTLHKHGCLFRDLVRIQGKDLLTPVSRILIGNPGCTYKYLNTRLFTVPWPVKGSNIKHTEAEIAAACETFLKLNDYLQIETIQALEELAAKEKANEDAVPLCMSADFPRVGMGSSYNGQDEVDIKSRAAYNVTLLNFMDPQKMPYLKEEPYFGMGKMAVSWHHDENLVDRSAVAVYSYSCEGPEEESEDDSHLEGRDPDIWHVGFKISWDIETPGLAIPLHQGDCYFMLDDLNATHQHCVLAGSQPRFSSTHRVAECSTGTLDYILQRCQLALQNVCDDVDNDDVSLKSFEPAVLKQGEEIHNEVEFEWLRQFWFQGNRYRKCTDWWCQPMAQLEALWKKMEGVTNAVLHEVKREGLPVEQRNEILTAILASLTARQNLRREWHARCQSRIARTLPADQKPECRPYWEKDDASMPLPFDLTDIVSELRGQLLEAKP

YTHDF2 = molecular target: T3, YTHDF2 (Homo sapiens, UniProt Q9Y5A9 385-576); assay: EMSA; 1 mM MgCl2; up to 5 uM protein; MST: 50 mM Tris pH 7.5, 150 mM NaCl, 0.05% Tween 20, 25 C; EMSA: 10 mM HEPES pH 7.3, 5% glycerol, 20 mM KCl, 1 mM MgCl2, 1 mM DTT, RNasin, 4 nM RNA, 4 C; details: protein: recombinant; tags: GST (pGEX-6P-1); label: 3' biotin; random coil single strand
T3 sequence: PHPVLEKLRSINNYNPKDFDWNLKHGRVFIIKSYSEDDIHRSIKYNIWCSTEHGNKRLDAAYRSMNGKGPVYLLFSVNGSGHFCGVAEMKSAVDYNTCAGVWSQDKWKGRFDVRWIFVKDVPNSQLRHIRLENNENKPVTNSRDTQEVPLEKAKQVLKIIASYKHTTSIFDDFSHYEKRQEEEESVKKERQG

ALKBH5 [3] = molecular target: T1, ALKBH5; assay: EMSA; 1 mM MgCl2; no binding at 1250-fold excess protein (5 uM); MST: 50 mM Tris pH 7.5, 150 mM NaCl, 0.05% Tween 20, 25 C; EMSA: 10 mM HEPES pH 7.3, 5% glycerol, 20 mM KCl, 1 mM MgCl2, 1 mM DTT, RNasin, 4 nM RNA, 4 C; details: protein: recombinant; tags: His6 (pNIC28-Bsa4); label: 3' biotin; blunt self-complementary duplex, 2 copies of one strand
FTO [4] = molecular target: T2, FTO; assay: as above; details: protein: recombinant; tags: His6 (pNIC28-Bsa4); label: 3' biotin; blunt self-complementary duplex, 2 copies of one strand

B1: 11 (ssRNA)
RNA: GCGGACUCCAGAUG
modifications: m6A at position 5
**Q.** What does the source list for B1?
**A.** Kd (ALKBH5 [1]; random coil single strand): 52.9 ± 2.21 µM; Kd (FTO [2]; random coil single strand): 97.1 ± 6.66 µM

B2: 25 (structured_RNA)
RNA: GCGGACUCCACCGC
modifications: m6A at position 5
**Q.** With B2 as the binder, how does the Kd (ALKBH5 [1]; hairpin) read?
**A.** 75.3 ± 2.01 µM

**Q.** What about the Kd (FTO [2]; hairpin) of the same binder?
**A.** 91.3 ± 4.65 µM

B3: biotin-11 (ssRNA)
RNA: GCGGACUCCAGAUG
modifications: m6A at position 5
**Q.** Does B3 bind (YTHDF2)?
**A.** binds

B4: biotin-15 (dsRNA)
RNA 1: GCGGACUAGUCCGC
RNA 2: GCGGACUAGUCCGC
modifications: m6A at position 5 of each strand
**Q.** Which results are given for B4?
**A.** binding result (ALKBH5 [3]): no binding; binding result (FTO [4]): no binding
